# Measured values reported in publication PMC9481602 (2022).
# Experiments:
# [1] = target: ubiquitin acetylated at K48 (UniProt P0CG48 1-76, acetyllysine (AcK) at position 48); experiment: NMR
# nonmodified ubiquitin = nonmodified ubiquitin (UniProt P0CG48 1-76); experiment: NMR
binder,measurement,setting,value
RFQQQLEQLNAMGFLNREANLQALIATGGDINAAIERLLGS (domain or fragment) [UBA domain of human Ubiquilin-2],Kd,[1],1300 nM
same,Kd,nonmodified ubiquitin,500 nM
